In the nanobody polyreactivity screen of Harvey et al. (2022):

Assay: yeast display, Sf9 membrane polyspecificity reagent, FACS + sequencing; frameworks hold sequencing errors
How it was run: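 After 36–48 hours of galactose induction, yeast (Saccharomyces cerevisiae BJ5465) displaying a synthetic nanobody library were stained at 4 °C for 1 hour with 10% biotinylated, detergent-solubilized Sf9 membrane reagent. Streptavidin microbeads enriched the stained cells before FACS sorting into low and high (top ~1%) gates on anti-HA and streptavidin fluorescence. Each clone's polyreactivity label reflects its gate of origin.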

Sequence | polyreactivity (PSR sort gate)
QVQLVESGGGLVQAGGSLRLSCAASGLTLYKNGMGWYRQAPGKERELVAVISRSGGRTYYADSVKGRFTISRDNAKNTVYVQMNSLKPEDTAVYYCAARQYGPRYTYYYWGQGTQVTVSS | high polyreactivity
QVQLVESGGGLVQAGGSLRLSCAASGSIFRYYAKGWSRQAPGKERELVAAISRSGGSTYYADSVKGRFTISRDNAKNTVYLQMKSLKPEDTAVYYCAAEYRVRAQGYVYWGQGTQVTVSS | high polyreactivity
QVQLVESGGGLVQAGGSLRLSCAASGSTFAVYAMGWYRQAPGKERELVAVISRGANTNYADSVKGRFTISRDNAKNTVYLQMNSLKPEDTAVYYCAAVDGYDSHDTGEYYYWGQGTQVSVSS | low polyreactivity
QVQLVESGGGLVQAGGSLRLSCAASGSTFEPNAMGWYRQAPGKERELVAAIDTDASTYYADSVKGRFTISRDNAKNTVYLQMNSLKPEDTAVYYCAADYYIAITYYDGDDYWGQGTQVTVSS | low polyreactivity
QVQLVESGGGLVQAGGSLRLICAASGSIFTVYAMGWYRQAPGKERELVADIDYGGTYYADSVKGRFTISRDNAKNTVYLQMNSLKPEDTAVYYCAALAALDYGQLYLDDDDYWGQGTQVTVSS | low polyreactivity
QVQLVESGGGLFQAGGSLRLSCAASGSIFRYNTMGWYRHAPGKESELVARISSGGSTYYADSVKGRFTISRDNAKNTVYLQMNSLKPEDTAVYYCAAVSRHRGWDRYYWGQGTQVTVSS | high polyreactivity
QVHLLESGGGLLQAGGSLRLNSDASGSTFITYCIGWFRQAPGKERELVARITLSGGSTYYADSVKGRFTSSRDNAKNTVYLQMNRLKPEDTAVYYCATDFGWQYYVLDGYYWGQGTQVTVSS | low polyreactivity
QVQLVESGGGLVQAGDSLRLSCAASGRIFKRNTMGWYRQAPGKERELVAAITRSGGSTYYADSVKGRFTISRDNAMNNVYLQMNSLKPEDTAVYYCNAPQYIGSVPIGDYWGLGTQVTVSS | high polyreactivity
QVQLVESGGGLVHAGGSLRLSCAASGGIYWYYAMGWYRQAPGKERELVAAISITDGSTYYADSVKGRFTISRDKAKNTVYLQMNSLKPEDTAVYYCAAEEEEYIYDYWGQGTQVTVSS | high polyreactivity
QVQLVESGGGLVQAGGSLRLSCAASGYIFLVYAMGWYRQAPGKERELVAAIDWSDTHTYYADSVKGRFTISRDNAKNTVYLHMNSLKPEDSAVYYCNADDYQYKTWYHLDYWGQGTQVTVSS | low polyreactivity
QVQLVESGGGLVQAGGSLRLSCAASGSIFYDYAMGWYRQAPGKERELVAAISGRGGSTYYADSVKGRFTISRDNAKNTVYLQMNSLKPEDTAVYYCAARYRYRFLDRYNYWGQGTQVTVSS | high polyreactivity
QVQLVDSGGGLVQAGGSHRLSCAASGFTFPYNAMGWYRQAPGKERELVAANSSTGGITYYADSVKGRFTISRDNAKNTVYLQMNSLKPEDTAVYYCGWYDYWGQGTQVTVSS | low polyreactivity
QVQLVESGGGLVQAGGSLRLSCAASGRIFDIYAMGWSRQAPGKERELVAAIDESGGSTYYADSVKGRFTISRDNAKNTVYLQMNSLKPEDTAVDYCATDDTWTIAYGWYWFTYEYWGQGTQVTVSS | low polyreactivity
QVQLVESGGGLVQAGGSLRLSCAASGRIFGPYAMGWYRQAPGKERELVASITRSGGRTYYADSVKGRFTISRDNAKNTVYLQMNSLKPEDSAVYYCAAGGFSKSYYYWGQGSQVTVSS | high polyreactivity
QVQLVESGGGLVQAGGSLRLSCAASGRIFGTYGMGWYRQAPGKERELVAAINWRGGSTYYADSVKGRFTISRDNAKNTVYLQMNSLKPEDTAVYYCNARLYRNRLGYWGQGTQVTVSS | high polyreactivity
QVQLVESGGGLVQAGGSLRLSCAASGRTFYHYAMGWYRQAPGKERELFAAISWTGGSTSSTYYADSVKGRFTISRDNAKNTVYLQMNSLKPEDTAVYYCAADFWWGHTWQDDYWGQGTQVTVSS | low polyreactivity
QVQLVESGGGLVQAGGSLRLSCAASGLTFKVYAMGWYRQAPGKERELVAAISWSGGSTYYADSVKGRFTISRDNAKNTVYLQMNSLKPEDTAVYYCAVEPSYYVVFFPYEYWGQGTQVTVSS | low polyreactivity
QVQLVESGGGLDQAGGSLRLICAASGRTYDTNAMGWYRQAPGKEREFVAAINTGGNTYYADSVKGRFTISRDNAKNTVYLQMNSLIPEDTAVYYSAAYYYYFYHKVIWYELDYWGQGTQVTLSS | low polyreactivity
QVQLVESGGGLVQAGGSLRLSCAASGRTFPYNAMGWYRQAPGNERELVAGISSGGTTTYADSVKGRFTISRDNAKNTVYLQMNSLKPEVTAVYYCAATVIIFDHSRPGWDDYDYWGQGTQVTVSS | low polyreactivity
QVQLVESGGGLVQAGGSLRLSCAASGITLYRYVMGWYRQAPGKERELVADISGRGTSTYYADSVKGRFTISRDNAKNTVYLQMNSLKPEDTAVYYSNSEYTKTGALVIPYTYYYAEDYWGQGTQVTVSS | low polyreactivity
QVQLVESGGGLVQAGGSLRLSCAASGSILGLYAMRWYRQATGKERELVASIPSSGSTYYAVSVKGRFTISRDYAKNTVYLQMYSLKPEDTAVYYCAAVGSYYYYIRYDYWGQGTQVTVSS | low polyreactivity
QVQLVESGGGLVQAGGSLRLSCAASGLTFTYYAMGWYRQSPGKASEFVAAISSSGSDTYYADSVKGRFTISRDNAKNTVYLQMTSQKPEDTAVYYCAAVLTGLSPDFEYEYWGQGTQVTVSS | low polyreactivity
